Laboratory results reported in the RNAGym collection of RNA variant scans (doi:10.1073/pnas.2313332121).

B1: TPR t1 (parent)
chain: GACCAAUCUGCCCUCAGAGCUCGAGAACAUCUUCGGAUGCAGAGGAGGCAGGCUUCGGUGGCGCGAUAGCGCCAACGUCCUCAACCUCCAAUGCAUCCCACCACAUGAUGAUGCCUGAAGAGCCUUGGUUUUUUG

Variants of: B1
Assay: polymerase ribozyme fitness, log enrichment relative to wild type (log ratio); higher = more active; in vitro selection for triplet polymerase activity
How it was run: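 Mutant libraries of both subunits of a heterodimeric triplet polymerase ribozyme were PCR-built, transcribed, and selected once in triplicate, with frozen incubation at −7 °C and capture of gel-excised extended constructs on streptavidin beads before RT-PCR. Illumina sequencing of input and output libraries was filtered to genotypes with ≥10 input reads and ≥1 read per output. Fitness is the logarithm of genotype enrichment over wild-type enrichment, using inverse-variance-weighted replicate averages. The logarithm is base 2.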

Variant | polymerase ribozyme fitness (log ratio)
GACCAAUCUGCCCUCAGAGCUCGAGAAUAUCUUCGGAUGCAGAGGAGGCAGGCUUCGGUGGCGCGAUAGCGGCAACGACCUCAACCUCCAAUGCAUCCCACCACAUGAUGAUGCCUGAAGAGCCUUGGUUUUUUG [C28U C72G U78A] | -2.79
GACCAAUCUGCCCUUAGAGCUCGAGAACAUCUUCGGAUGCAGAGGAGGCAGGCUUCGGUGGCGCGAUAGCGCCAACGUCCUCAACCUCCAAUGCGUCCCACCACAUGAUGAUGCCUGAAGAGCCUUGGUUUUUUG [C15U A95G] | -1.71
GCCCAAUAUGCCCUCAGAGCUCGAGAACAUCUUCGGAUGCAGAGGAGGCAGGCUUCGGUGGCGCGAUAGCGCCAACGUCCUCAACCUCCAAUGCAUCCCACCACAUGAUGAUGCCUGAAGAGCCUUGGUUAUUUG [A2C C8A U131A] | -1.54
GACCAAUCUGCCCUCAGAGCUCGAGAACAUCUUCGGAUGCAGAGGAGGCAGGCAUCGGUGGCGCGAUAGCGCCAACGUCCUCAACCUCCAACGCAUCCCACCACAUGAUGAUGCCUGAAGAGCCUUGAUUUUUUG [U54A U92C G128A] | -3.16
GACCAAUCUGCCCUUAGUGCUCGAGAACAUCUUUGGAUGCGGAGGAGCCAGGCUUCGGUGGCGCGAUAGCGCCAACGUCCUCAACCUCCAAUGCAUCCCACCACAAGAUGGUGCCUGAAGAGCGUUGGUUUUUUG [C15U A18U C34U A41G G48C U106A A111G C124G] | -6.92
GACCAAUCUGCCCUCAGAGCUCGAGAACAUCUUCGGAUGCAGAGGAGGCAGGCUUCGGUGACGCGAUAGCGCCAACGGCCUCAACCUCCAAUGCAUCCCACCACAUAAUGAUGUCUAAAGAGCCUUGGUUUUUUG [G61A U78G G107A C114U G117A] | -6.96
GACCAAUCUGCCCUCAGAGCUCGAGAACAUCUUCGGAUGCAGAGGAGGCAGGCUUCGGUGGCGCGAUAGAGCCAACGUCCUCAACCUCCAAUGCAUCCCACCACAUGAUGACGCCUGAAGAGCCUUGGUUUUUUG [C70A U112C] | 0.318
GACCAAUAUGCCCUCAGAGCUCGAUCACAUCUUCGGAUGUAGAGGAGGCAGGCUUCGGUGGCUCGAUAGCGCCAACGUCCUCAACCUGCAAUGCAUCCCACCACAUGAUGACGCCUGAAGAGAAUUGGUAUUUUG [C8A G25U A26C C40U G63U C88G U112C C123A C124A U130A] | -7.64
GACCAAUCUGCCCUCAGAGCUCGAGAACAUCUUCGGAUGCAGAGGAGGCAGGCUUCGGUGGCGCGAUAGCGCCAACGCCCUCACCCUCCAAUGCAGCCCACCACAUGAUGAUGCCGGAAGAGCCUUGGUUUUUUG [U78C A84C U96G U116G] | -3.6
GACCAAUCUGCCCUCAGAGAUCGAGAACAUCUUCGGAUGCAUAGGAGGCAGGCUUCGGUAGCGCGAUAGCGCCAACGUCCUCAACCUCCAAUGCAUCCCACCACAUGAUGAUGCCUGAAGAGCCUUGGUUUUUUG [C20A G42U G60A] | -3.62
GACCAAUCUGCCCUCAGAGCUCGAGAACAUCUUCGGUUGCAGAGGAGGCAGGCUUCGGUGGCGCGAUAGCGCCCACGUCCUCAACCUGCAAUGCAUCCCACCACAUGAUAAUGCCUGAAGAGCCUUGGUUUUUUG [A37U A74C C88G G110A] | -3.27
GACCAAUCUGCCCUCAGAGCUCGAGAACAUCUUAGGAUGCAGAGGAGGCAGGCUUCGGUGGCGCGAUAGCGUCAACGUCCUCAACCUCCAAUGCAUCCCACCACAUGAUGAUGCCGGAAGAGCCUUGGUUUUUUG [C34A C72U U116G] | -5.21
GAACAAUCUGCCCUCAGAGCUCGAGAACAUCUUCGGAUGCUGAGGAGGCAGGCUUCGGUGGCGCGAUAGAGCCAACGUCCUCAACCUCCACUGCAUCCCACCACAUGAUGAGGCCUGAAGAGCCGUUGUUUUUUG [C3A A41U C70A A91C U112G U125G G127U] | -4.59
GACCAAUCUGCCCUCAGAGAUCGAGAACAUCUUCGGAUGCAGAGGAGGCAGGCUUCGGUGGGUCGAUAGCGCCAACGUCCUCAACCUCCAAUGCAUCCCACCACAUGAUGAUGACUGAAAAGCCUUGGUUUUUUG [C20A C62G G63U C114A G120A] | -6.07
GACCUAUCUGCCCUCAGAGCUCGAGAACAUCUUCGGAUGCAGAGGAGGCAGGCUUCGGUGGCGUGAUAGCGCCAACGUCCUCAACCUCCAAUGCAUCCCACCACAUGAUGAUGCCUGAAGAGCCUUGGUUUUUUG [A5U C64U] | -0.49
GACCAAUCUGCCCUCAGAGCUCGAGAACAUCUUCGGAUGCAGAGGAGGCAGGCUUCGGUGACGCGAUAGCGCCAACGUCCUCAACCUCCAAUGCAUCCCACCACAUGAUGAUGCCUGAAGAGCCUUAGUUUUUUG [G61A G127A] | -2.37
GACCAAUCUGCCCUCAGAGCUCGAGAACAUCUUCGGAUGCCGAGGAGGCAGGCUUCGGUGGCGCGAUAGCGCCAACGUCCUCAACCUCCAUUGCCUCCCACCACAUGAUGAUACCUGAAGAGCCUUGGUUUUUUG [A41C A91U A95C G113A] | -3.38
GACCAAUCUGCUCUCAGAGCUCGAGAACAUCUUCGGAUGCAGAGGAAGCAGGCUUCGGUGGCGCGAUAGCGCCAACGUCCUCAACCUCCAAUGCAUCCCACCACAUGAUGAUUCCUGAAGAGCCUUGGUUUUUUG [C12U G47A G113U] | -3.45
GACCAAUCUGCCCUCAGAGCUCGAGAACAUCUUCGGAUGCAGAGGAGACAGGCUUCGGUGGCGCGAUAGCGCCAACGUCCUCAACCUCCAAUGCAUCCCACCACAUGAUGAUGCCUGAAGAGCCUUGGUGUUUUG [G48A U130G] | -1.37
GACCAAUCGGCCCUCAGAGCUCGAGAACAUCUUCGGAUGCAGAGGAGGCACGCUUGGGUGGUGCGAUAGCGCCAACGUCGUCAACCUCCAAUGCAUCCCACCACAUGAUGAUGCCUGAUGAGCCUUGGUUUUUUG [U9G G51C C56G C62U C80G A119U] | -0.0854
GACCAAUCUGCCCUCAGAGCUCGAGAACAUCUUCGGAUGCAGAGGAGGCAGGAUUCGGUGACGCGAUAGCGCCAACGGCCUCAACCUCCAAUGCAUCCCACCACAUGAUGAUGCCUGAAGAGCCUUGGUUUUUUG [C53A G61A U78G] | 0.644
